In patent publication US11584938B2, “Plant EPSPS mutant containing L195P and S247G mutations and encoding gene and use thereof” (GEVOTO LLC, priority 2017, dated 2023):

Tested on: transgenic rice plants
Assay: glyphosate resistance of the EPSPS mutant in transgenic rice plants sprayed with Roundup 41% ammonium glyphosate
Format: in vivo, rice (Nipponbare)
From the text: A method for detecting the glyphosate resistance of G1 (SEQ ID NO: 4) provided in Example 1, G3 (SEQ ID NO: 8) provided in Example 2, G4 (SEQ ID NO: 10) provided in Example 3, the soybean EPSPS mutant G5 (SEQ ID NO: 12) provided in Example 4, T1 (SEQ ID NO: 16) provided in Example 5, T3 (SEQ ID NO: 20) provided in Example 6, T4 (SEQ ID NO: 22) provided in Example 7, T5 (SEQ ID NO: 24) provided in Example 8, the wheat EPSPS mutant T6 (SEQ ID NO: 26) provided in Example 9, R1 (SEQ ID NO: 30) provided in Example 10, R3 (SEQ ID NO: 34) provided in Example 11, R4 (SEQ ID NO: 36) provided in Example 12, R5 (SEQ ID NO: 38) provided in Example 13, and the rice EPSPS mutant R6 (SEQ ID NO: 40) provided in Example 14 in the transgenic rice is as follows:
The plasmids (containing the EPSPS mutation gene) of the monoclonal resistant bacteria of pADV5-EPSPS in Examples 1-7 were extracted by a conventional method, followed by double enzyme digestion by Pac1 and BstEII, the small fragments were collected, and then the small fragments were ligated by using T4 DNA ligase, to the pGVP1 vectors that had undergone the same double enzyme digestion, to obtain a pGVP1-EPSPS vector having a structure as shown in FIG. 23.
EHA105 (Agrobacterium tumefaciens) competent cells were transformed by the pGVP1-EPSPS vector, and single colonies were picked up to perform bacterial colony PCR detection to identify positive strains; then the positive strains were inoculated into 1 mL of YEP culture medium containing 50 μg·mL^−1 kanamycin and 50 μg·mL^−1 rifampin to propagate, and then preserved at −80° C., or used for subsequent experiment.
400 μl of bacterium containing the target gene vector preserved at −80° C. was added to a culture dish of solid culture media containing YEP+50 μg/mL rifampin+50 μg/mL kanamycin, and cultured in the dark at 28° C. for 24 hours, then this bacterium was added to an infection culture medium, and this bacterial solution was adjusted to OD=0.2 as an infection liquid.
Sterilization and pre-culturing: mature rice (Nipponbare) seeds were manually shelled, and full seeds without bacterial plaque were selected, and sterilized according to following steps: putting the seeds into a 50 ml sterile centrifuge tube, adding 70% alcohol for disinfection for 30 seconds, pouring out the alcohol, and cleaning the seeds once with sterile water; adding 10-20 ml of 2.6% sodium hypochlorite solution for soaking and sterilizing for 20 minutes, pouring out the sodium hypochlorite solution, and soaking and cleaning the seeds with sterile water for 6-7 times, 3 minutes each time.
Induction and subculturing: the seeds were put on sterile filter paper for drying, and mature embryos were put in an induction culture medium with 12 embryos in each dish; the culture dishes were sealed with a sealing film after the operation was finished, the mature embryos were cultured in the dark at 30° C. for 21-28 days, calluses were transferred into a fresh culture medium, and continuously cultured for about 7-14 days, and spherical calluses with a size of 1-2 mm were taken as infection receptors.
the calluses were inoculated into a centrifuge tube or a culture cup, the prepared Agrobacterium tumefaciens suspension liquid was added for infection for 10 minutes, wherein the calluses were shaken several times; the bacterial solution was poured out, the calluses were taken out, and placed on sterile filter paper to suck out the surface bacterial solution (about 30 minutes); and the calluses were put on sterile filter paper in a culture dish, and cultured in the dark at 25° C. for 2-3 days.
Recovery culturing: the calluses having undergone co-culturing were inoculated in a recovery culture medium, and cultured in the dark at 30° C. for 5-7 days. First round of screening: the calluses were transferred to screening culture media 1 (S1) and cultured in the dark at 30° C. for 14 days. […]

[1] = 1× dosage 1060 g/hectare glyphosate sprayed, recorded on 10th day
[2] = 2× dosage 2120 g/hectare sprayed to plants surviving 1×, recorded 10 days later
[3] = 5× dosage 5300 g/hectare sprayed to plants surviving 2×, recorded 10 days later
[4] = 20× dosage 21200 g/hectare sprayed to plants surviving 5×, recorded 10 days later

| Molecule | %++&+++ (percentage of plant having medium and high glyphosate resistance to the total number of plants observed) [1] | number of plants denoted by + (low glyphosate resistance) [1] | number of plants denoted by ++ (medium glyphosate resistance) [1] | number of plants denoted by +++ (high glyphosate resistance) [1] | number of plants denoted by − (no glyphosate resistance) [1] | glyphosate resistance / survival of the rice transformed by the EPSPS, in words (1× glyphosate dosage) | %++&+++ (percentage of plant having medium and high glyphosate resistance to the total number of plants observed) [2] | number of plants denoted by + (low glyphosate resistance) [2] | number of plants denoted by ++ (medium glyphosate resistance) [2] | number of plants denoted by +++ (high glyphosate resistance) [2] | number of plants denoted by − (no glyphosate resistance) [2] | &++&+++ (percentage of plant having medium and high glyphosate resistance to the total number of plants observed) [3] | number of plants denoted by + (low glyphosate resistance) [3] | number of plants denoted by ++ (medium glyphosate resistance) [3] | number of plants denoted by +++ (high glyphosate resistance) [3] | number of plants denoted by − (no glyphosate resistance) [3] | &++&+++ (percentage of plant having medium and high glyphosate resistance to the total number of plants observed) [4] | number of plants denoted by + (low glyphosate resistance) [4] | number of plants denoted by ++ (medium glyphosate resistance) [4] | number of plants denoted by +++ (high glyphosate resistance) [4] | other results |
| --- | --- | --- | --- | --- | --- | --- | --- | --- | --- | --- | --- | --- | --- | --- | --- | --- | --- | --- | --- | --- | --- |
| G0: wild-type soybean EPSPS, amino acid sequence SEQ ID NO: 2; control (protein, Glycine max, control) MAAAEKPSTAPEIVLEPIKDISGTITLPGSKSLSNRILLLAALSEGTTVVDNLLYSEDIHYMLGALRTLGLRVEDDQTTKQAIVEGCGGLFPTIKESKDEINLFLGNAGTAMRPLTAAVVAAGGNASYVLDGVPRMRERPIGDLVAGLKQLGADVDCFLGTNCPPVRVNGKGGLPGGKVKLSGSVSSQYLTALLMAAPLALGDVEIEIVDKLISVPYVEMTLKLMERFGVSVEHSGDWDKFLVHGGQKYKSPGNAFVEGDASSASYFLAGAAVTGGTITVNGCGTSSLQGDVKFAEVLEKMGAKVTWSENSVTVTGPPQDSSGQKVLQGIDVNMNKMPDVAMTLAVVALFANGQTTIRDVASWRVKETERMIAICTELRKLGATVEEGPDYCVITPPEKLNVTAIDTYDDHRMAMAFSLAACGDVPVTIKDPGCTRKTFPDYFEVLERFTRH | 0.0% | 0 | 0 | 0 | 36 | had no resistance and died | 0.0% | 0 | 0 | 0 | 36 | 0.0% | 0 | 0 | 0 | 36 | 0.0% | 0 | 0 | 0 | number of plants denoted by − (no glyphosate resistance) [4]: 36 |
| G1: soybean EPSPS mutant, SEQ ID NO: 4, mutation L212(195)P (protein) MAAAEKPSTAPEIVLEPIKDISGTITLPGSKSLSNRILLLAALSEGTTVVDNLLYSEDIHYMLGALRTLGLRVEDDQTTKQAIVEGCGGLFPTIKESKDEINLFLGNAGTAMRPLTAAVVAAGGNASYVLDGVPRMRERPIGDLVAGLKQLGADVDCFLGTNCPPVRVNGKGGLPGGKVKLSGSVSSQYLTALLMAAPLALGDVEIEIVDKPISVPYVEMTLKLMERFGVSVEHSGDWDKFLVHGGQKYKSPGNAFVEGDASSASYFLAGAAVTGGTITVNGCGTSSLQGDVKFAEVLEKMGAKVTWSENSVTVTGPPQDSSGQKVLQGIDVNMNKMPDVAMTLAVVALFANGQTTIRDVASWRVKETERMIAICTELRKLGATVEEGPDYCVITPPEKLNVTAIDTYDDHRMAMAFSLAACGDVPVTIKDPGCTRKTFPDYFEVLERFTRH | 16.7% | 20 | 4 | 2 | 10 | obviously superior to that of the rice seedlings transformed by G0 | 0.0% | 19 | 0 | 0 | 17 | 0.0% | 5 | 0 | 0 | 31 | 0.0% | 0 | 0 | 0 | number of plants denoted by − (no glyphosate resistance) [4]: 36 |
| G2: soybean EPSPS mutant, SEQ ID NO: 6, merely containing the mutation P114(101)S; control (protein) MAAAEKPSTAPEIVLEPIKDISGTITLPGSKSLSNRILLLAALSEGTTVVDNLLYSEDIHYMLGALRTLGLRVEDDQTTKQAIVEGCGGLFPTIKESKDEINLFLGNAGTAMRSLTAAVVAAGGNASYVLDGVPRMRERPIGDLVAGLKQLGADVDCFLGTNCPPVRVNGKGGLPGGKVKLSGSVSSQYLTALLMAAPLALGDVEIEIVDKLISVPYVEMTLKLMERFGVSVEHSGDWDKFLVHGGQKYKSPGNAFVEGDASSASYFLAGAAVTGGTITVNGCGTSSLQGDVKFAEVLEKMGAKVTWSENSVTVTGPPQDSSGQKVLQGIDVNMNKMPDVAMTLAVVALFANGQTTIRDVASWRVKETERMIAICTELRKLGATVEEGPDYCVITPPEKLNVTAIDTYDDHRMAMAFSLAACGDVPVTIKDPGCTRKTFPDYFEVLERFTRH | 47.1% | 6 | 5 | 3 | 3 | had certain resistance to glyphosate | 0.0% | 0 | 0 | 0 | 17 | 0.0% | 0 | 0 | 0 | 17 | 0.0% | 0 | 0 | 0 | glyphosate resistance / survival of the rice transformed by the EPSPS, in words (2× glyphosate dosage): all rice seedlings containing the soybean EPSPS mutant G2 died; glyphosate resistance / survival of the rice transformed by the EPSPS, in words (5× glyphosate dosage): all rice seedlings containing the soybean EPSPS mutant G2 died; number of plants denoted by − (no glyphosate resistance) [4]: 17; glyphosate resistance / survival of the rice transformed by the EPSPS, in words (20× glyphosate dosage): all rice seedlings containing the soybean EPSPS mutant G2 died |
